Kd data for one molecule are collected here from patent publication US20210139602A1 (MEDABOME, published 2021).

The target in the experiment is T1, rPODXL-v2-Del-Fc fusion protein (human, UniProt O00592-2 23-429, highly glycosylated).
T1 construct: extracellular domain; In-frame fusion of the ECD and human IgG1 Fc, expressed in CHO-K1; The two deletions are written as substitutions to '-'; not shown: human IgG1 Fc from the pFUSE-hIgG1-Fc1 expression vector (InvivoGen)
T1 sequence (looked up): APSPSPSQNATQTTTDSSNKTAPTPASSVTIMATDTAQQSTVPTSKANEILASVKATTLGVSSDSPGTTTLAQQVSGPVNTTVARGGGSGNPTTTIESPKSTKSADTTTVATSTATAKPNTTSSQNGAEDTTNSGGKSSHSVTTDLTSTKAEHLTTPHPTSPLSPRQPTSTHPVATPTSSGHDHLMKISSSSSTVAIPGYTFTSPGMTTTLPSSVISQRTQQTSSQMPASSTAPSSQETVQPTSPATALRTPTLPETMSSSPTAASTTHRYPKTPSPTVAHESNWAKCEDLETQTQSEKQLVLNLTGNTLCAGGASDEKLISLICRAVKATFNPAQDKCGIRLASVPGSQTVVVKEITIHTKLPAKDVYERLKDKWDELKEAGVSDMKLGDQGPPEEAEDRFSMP
The experiment in a line: BLI (Octet QKe), mAb captured on anti-mouse IgG Fc (AMC) biosensors, antigen in 1:2 serial dilutions. On the procedure:
The Octet® QKe System (Molecular Devices, San Jose, Calif.) was used to determine the binding affinities between MAI1738 mAb and the extracellular domains of PODXL-v2 and PODXL-v2-Del. The MAI1738 mAb was immobilized to the Anti-Mouse IgG Fc Capture (AMC) biosensors, followed by loading of the antigen, rPODXL-v2-Fc or rPODXL-v2-Del-Fc, at 1:2 serial dilutions for 5 minutes. The assay was repeated multiple times to determine the average range of the affinity between MAI1738 and rPODXL-v2-Fc or rPODXL-v2-Del-Fc.

B1: MAI1738 mAb (antibody, V domains shown)
VH: EVKLVESGGGLVKPGGSLKVSCAASGFTFSTYTMSWVRQTPEKRLEWVATISGGVIYTYYPDSVKGRFTISRDDAKNTLYLQMSSLRSEDTALYYCARHYSNYEGQGMDSWGQGTSVTVSS
VL: DIVLTQSPVTLSVTPGDSVSLSCRASQSINNNLHWYQQKSHESPRLLIKYASQSISGIPPRFSGSRSGTDFTLSINTVETEDFGVYFCQQSNSWPLTFGAGTKLELKR
notes: Mouse monoclonal antibody from a hybridoma (A/J mice); it is detected with anti-mouse IgG-Fc; also called anti-PODXL-v2 monoclonal antibody; second subclone of MS17-38
With B1, the Kd amounted to 1.58 nM.
